The values below come from patent publication US12702694B2, “Methods for identification, assessment, prevention, and treatment of metabolic disorders using SLIT2” (Dana-Farber Cancer Institute, Inc., priority 2015, dated 2026).

Experiment [1] deals with primary inguinal fat cells. The experiment in a line: Cellular oxygen consumption measured by Seahorse. Format: cell-based, Mus musculus. Particulars: recombinant Slit2-C 1 ug/mL (Calico/AbbVie), acute or 2 h treatment; FIG. 13. As for the experimental part: Tissue respiration was performed using a Clark electrode (Stathkelvin Instruments). Freshly isolated tissues were dissected from mice treated with LacZ or Slit2-C adenovirus for 7 days. Equally sized pieces of tissue were minced and placed in respiration buffer containing PBS supplemented with 2% (w/v) bovine serum albumin, 1% (w/v) glucose, and 1 mM Na pyruvate. Oxygen (O2) consumption was normalized to tissue weight. Cellular oxygen consumption rates were determined using an XF24 Extracellular Flux Analyzer (Seahorse Biosciences). Primary brown fat adipocytes were seeded at 15,000 cells/well, differentiation was induced the following day as previously described, and the cells were analyzed on day 5. On the day of analysis, the cells were washed once with Seahorse respiration buffer (8.3 g/l DMEM, 1.8 g/l NaCl, 1 mM pyruvate, 20 mM glucose, pen/strep), placed in 0.5 ml Seahorse respiration buffer, and incubated in a C02-free incubator for 1 hr. […]
As described above in Examples 5-7, in vitro and in vivo data on respiration using Slit2-C adenovirus overexpression models and loss-of-function analyses in Seahorse assays are described. In vitro confirmation of the results was determined using an alternative source of recombinant Slit2-C (FIG. 13). […] Cellular oxygen consumption rates were determined as described in Example 1 Statistical analysis was performed as described in Example 1C above.

Experiment [2] relates to inguinal white fat tissue and brown fat tissue. The experiment in a line: Tissue respiration (Clark electrode) of minced adipose tissue. The format is in vivo, Mus musculus. Particulars: day 7 after adenovirus injection. As to the method:
Tissue respiration was performed using a Clark electrode (Stathkelvin Instruments). Freshly isolated tissues were dissected from mice treated with LacZ or Slit2-C adenovirus for 7 days. Equally sized pieces of tissue were minced and placed in respiration buffer containing PBS supplemented with 2% (w/v) bovine serum albumin, 1% (w/v) glucose, and 1 mM Na pyruvate. Oxygen (O2) consumption was normalized to tissue weight. Cellular oxygen consumption rates were determined using an XF24 Extracellular Flux Analyzer (Seahorse Biosciences). Primary brown fat adipocytes were seeded at 15,000 cells/well, differentiation was induced the following day as previously described, and the cells were analyzed on day 5. On the day of analysis, the cells were washed once with Seahorse respiration buffer (8.3 g/l DMEM, 1.8 g/l NaCl, 1 mM pyruvate, 20 mM glucose, pen/strep), placed in 0.5 ml Seahorse respiration buffer, and incubated in a C02-free incubator for 1 hr. Port injection solutions were prepared as follows: oligomycin (1 μM final concentration), norepinephrine (1 μM final concentration), FCCP (0.2 μM final concentration), and rotenone (3 μM final concentration). Each cycle consisted of the following: mix 4 min, wait 0 min, and measure 2 min. Data are presented as S.E.M.

Experiment [3] concerns diet-induced obese (DIO) mice. The experiment in a line: Adipose gene and UCP1 protein expression after adenovirus injection in diet-induced obese (DIO) mice. Format: in vivo, Mus musculus. As for the experimental part:
All animal experiments were approved by the Institutional Animal Care and Use Committee of the Beth Israel Deaconess Medical Center. Mice (Mus musculus) were obtained from Jackson Laboratories, maintained in 12 hour light-lark cycles (6 a.m.-6 p.m.) at 22° C., and fed a standard irradiated rodent chow diet or a high-fat diet (60% fat) for 12-20 weeks. AAV-8 viruses (Penn Vector Core) and adenoviruses (Vector Biolabs or constructed in-house) were injected at a titer of 10^11 or 10^10 per mouse, respectively. All experiments were done with male mice. The aP2-PRDM16 transgenic mice have been previously described in Seale et al. (2011) J. Clin. Invest. 121:96-105. PRDM16-floxed mice were crossed with adiponectin-Cre and were maintained on a pure C57BL/6 background (Cohen et al. (2014) Cell 156:304-316). The Slit2-floxed mice have been described previously in Rama et al. (2015) Nat. Med. 21:483-491. Lean C57BL/6 mice were obtained from Jackson Laboratories and were […].
RNA was extracted from cultured cells or frozen tissue samples using TRIzol®, purified with QIAGEN RNeasy® minicolumns. Normalized RNA was reversed transcribed using a high-capacity cDNA reverse transcription lot (Applied Biosystems) and cDNA was analyzed by qRT-CPR. Relative mRNA levels were calculated using the comparative CT method and normalized to cyclophilin […]. All primers used are listed with their sequences in Table 3 as follows: […]
(§1) For Western blotting, homogenized tissues, whole cell lysates, or concentrated serum free conditioned medium were lysed in RIPA buffer containing protease inhibitor cocktail (Thermo Scientific) and phosphatase inhibitor cocktail (Thermo Scientific), separated by SDS-PAGE and transferred to Immobilon-P® membranes (Millipore). For Western blotting of plasma samples, 1 μl of plasma was prepared containing 2× sample buffer (Invitrogen) with reducing agent, boiled and analyzed using Western blot against V5, FLAG, or the indicated antibody. V5-antibody was from Life Technologies and anti-Flag M2-HRP (A8592) from Sigma Aldrich. Anti-Slit2 antibody used was from Abcam (Abcam ab134166). Phospho-PKA Substrate, phospho-PKC Substrate, phospho-ERK1/2, total ERK, phospho-AKT, total AKT, phospho-AMPK, total AMPK, phospho-ATGL, ATGL, phospho-EGFR and EGFR were from Cell Signaling. Protein array was from R&D Systems (Proteome Profiler Mouse Phospho-RTK Array Kit, ARY014). Silverstain (SilverQuest™ Silver Staining Kit, LC6070) was purchased from Thermo Fisher.

Experiment [4] concerns receptor tyrosine kinases and intracellular kinases. The experiment in a line: Phosphokinase array in primary inguinal cells. The format is cell-based, Mus musculus. Particulars: Slit2-C vs lacZ adenovirus, primary inguinal adipocytes. As to the method:
as §1

B1: Slit2-C: ~50 kDa C-terminal cleavage fragment of Slit2 beginning at TSP (SEQ ID NO: 22); adenovirally expressed or purified FLAG-tagged protein (protein, listed as Homo sapiens)
chain: TSPCDNFDCQNGAQCIIRINEPICQCLPGYLGEKCEKLVSVNFVNKESYLQIPSAKVRPQTNITLQIATDEDSGILLYKGDKDHIAVELYRGRVRASYDTGSHPASAIYSVETINDGNFHIVELLTLDSSLSLSVDGGSPKVITNLSKQSTLNFDSPLYVGGMPGKNNVASLRQAPGQNGTSFHGCIRNLYINSELQDFRKMPMQTGILPGCEPCHKKVCAHGMCQPSSQSGFTCECEEGWMGPLCDQRTNDPCLGNKCVHGTCLPINAFSYSCKCLEGHGGVLCDEEEDLFNPCQMIKCKHGKCRLSGVGQPYCECNSGFTGDSCDREISCRGERIRDYYQKQQGYAACQTTKKVSRLECRGGCAGGQCCGPLRSKRRKYSFECTDGSSFVDEVEKVVKCGCARCAS
modifications: FLAG tag
notes: adenovirally expressed or purified FLAG-tagged protein
As for B1, in experiment [1], the “cellular oxygen consumption vs results of Examples 5-7” value was “confirm the results”. Also, the “O2 consumption of inguinal tissue” value in experiment [2] (did not reach significance) is recorded as “elevated”. The “O2 consumption of BAT” value in experiment [2] (reached significance) is reported as “elevated”. For the same molecule, the “Fas in inguinal and brown fat” value in experiment [3] (16-week DIO mice, 7 days post-injection, FIGS. 7A-7B) is “reduction”. In addition, the “Hsl and Atgl expression” value in experiment [3] (16-week DIO mice, FIGS. 7A-7B) is reported as “unchanged”. For the same molecule, in experiment [3] (FIG. 7C), the “Resistin in brown fat” value was “unchanged” and the “brown fat levels of Leptin” value is given as “marked reduction”. In experiment [3] (Western blot quantification relative tubulin, DIO mice 7 days post-injection, FIG. 7D), the “induction of Ucp1 protein expression in BAT” value is given as 1.3 fold. Besides, in experiment [4], the “phospho-EGFR and phospho-ERK1/2 (only two of 39 kinases tested)” value is recorded as “robust phosphorylation changes”.
